B1: anti-ROR1 antibody clone G3 (antibody, V domains shown)
VH: QVQLQQWGAGLLKPSETLSLTCAVYGGSFSGYYWSWIRQPPGKGLEWIGEINHSGSTSYNPSLKSRVTISVDTSKNQFSLKLSSVTAADTAVYYCARGHSSGWYRRYFDLWGRGTLVTVSS
VL: EIVLTQSPATLSLSPGERATLSCRASQSVSSYLAWYQQKPGQAPRLLIYDASNRATGIPAKFSGSGSGTDFTLTISSLEPEDFAVYYCQQRSNWPPTFGGGTKVEIK
B2: anti-ROR1 antibody clone C3 (antibody, V domains shown)
VH: QVQLQESGPGLVKPSETLSLTCTVSGGSISSYYWSWIRQLPGKGLEWIGYMHYSGSTSYNPSLKGRLTISVDTSTNQFSLKLGSVTAADTAVYYCARYYYHDSSGYYSYFDYWGQGTLVTVSS
VL: EIVLTQSPGTLSLSPGERATLSCRASQSVSSYLAWYQQKAGQAPRLLIYDASNRASGIPARFSGSGSGTDFTLTISSLEPEDFAVYYCQQRSNWPPTFGGGTKVEIK
B3: anti-ROR1 antibody clone G6 (antibody, V domains shown)
VH: EVQLVESGGGVVQPGGSLRLSCAASGFTFDDYAMHWVRQAPGKGLEWVSLISGDGGSTYYADSVKGRFTISRDNAKNSLYLQMNSLRAEDTAVYYCARDNWNDVYYYYGMDVWGQGTTVTVSS
VL: DIQLTQSPSSLSASIGDTVTISCQASRDISDYLNWYQHKPGKAPKLLIYDASNLATGVPSRFSGSGSGTDFTLTIKSLQPEDVATYFCQQDDLLPLTFGGGTKVDIK

Human ROR1-ECD, sequence (Q01973 30-406): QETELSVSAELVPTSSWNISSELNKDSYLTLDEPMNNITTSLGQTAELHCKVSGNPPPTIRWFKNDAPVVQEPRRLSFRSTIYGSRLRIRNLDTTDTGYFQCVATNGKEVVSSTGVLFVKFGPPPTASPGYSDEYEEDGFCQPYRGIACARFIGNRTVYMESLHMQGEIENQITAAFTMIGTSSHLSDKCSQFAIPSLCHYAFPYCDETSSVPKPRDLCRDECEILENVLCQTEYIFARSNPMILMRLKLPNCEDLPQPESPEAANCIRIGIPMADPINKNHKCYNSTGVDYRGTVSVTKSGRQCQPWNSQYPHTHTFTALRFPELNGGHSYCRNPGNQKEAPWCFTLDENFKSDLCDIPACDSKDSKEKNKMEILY

This assay concerns the target Human ROR1-ECD (human, UniProt Q01973 30-406). In words: BLI (Fortebio).
Turning to B1, the dissociation constant Kd came out at 4.48 nM.

In turn, B2 had a Kd of 3.25 nM.

On to B3, for which the Kd came to 43.7 nM. This Kd lies about 13-fold higher than the previous one.

The values are drawn from patent US20220356246A1 (published 2022).
